From PMC2711601

Target: ribosomes of dog pancreas rough microsomes (ribosomal pellet after digitonin solubilisation) (dog (endogenous in dog pancreas microsomes))
Assay: co-sedimentation

| Substance | percent pelleted with ribosomes [%] | percent in the ribosome pellet [%] |
| --- | --- | --- |
| Sec61β, subunit of the Sec61p translocon complex (dog pancreas microsomes) (from UniProt P60467 1-96) (natural protein) | 80 | – |
| RAMP4 (ribosome-associated membrane protein 4, dog pancreas microsomes) (from UniProt A0A8I3PRN4 1-66) (natural protein) | – | 10 to 20 |
